Patent US20260250410A1 (SICHUAN HUIYU PHARMACEUTICAL, published 2026)

Tests used:
[1] = molecular target: T1, human CDCP1 on tumor cells (human, UniProt Q9H5V8 30-836); experiment: cell-based or functional assay
T1 sequence (looked up): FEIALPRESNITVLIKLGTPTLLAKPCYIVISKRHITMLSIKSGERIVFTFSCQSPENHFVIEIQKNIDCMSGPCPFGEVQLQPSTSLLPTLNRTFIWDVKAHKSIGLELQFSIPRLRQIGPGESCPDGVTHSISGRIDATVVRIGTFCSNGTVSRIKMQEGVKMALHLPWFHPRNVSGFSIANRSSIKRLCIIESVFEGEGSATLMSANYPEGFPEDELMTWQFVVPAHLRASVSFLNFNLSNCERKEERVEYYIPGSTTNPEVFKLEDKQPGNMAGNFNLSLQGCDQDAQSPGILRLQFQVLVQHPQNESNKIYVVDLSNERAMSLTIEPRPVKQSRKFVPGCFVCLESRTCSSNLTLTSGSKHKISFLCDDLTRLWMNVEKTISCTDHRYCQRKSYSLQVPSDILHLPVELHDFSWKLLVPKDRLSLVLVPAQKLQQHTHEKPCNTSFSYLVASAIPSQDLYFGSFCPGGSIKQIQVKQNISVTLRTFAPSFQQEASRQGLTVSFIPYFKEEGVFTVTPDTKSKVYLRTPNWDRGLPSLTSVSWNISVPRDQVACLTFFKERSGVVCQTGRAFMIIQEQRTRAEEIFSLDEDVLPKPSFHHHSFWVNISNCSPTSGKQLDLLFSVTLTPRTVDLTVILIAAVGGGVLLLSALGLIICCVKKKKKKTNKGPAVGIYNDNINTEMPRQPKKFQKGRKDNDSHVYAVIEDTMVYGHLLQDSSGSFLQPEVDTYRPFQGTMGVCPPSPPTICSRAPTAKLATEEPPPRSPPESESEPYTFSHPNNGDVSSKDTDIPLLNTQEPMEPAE

[2] = molecular target: T1, human CDCP1 on tumor cells; experiment: laser confocal microscopy, HCC1806 cells, dye-labeled antibody
Description: The lysosomes were labeled with red fluorescence, and the relative position changes and colocalization of green fluorescence and red fluorescence in the cells were detected to determine whether the antibodies were colocalized with lysosomes after endocytosis into the cells.

huCDCP1-his = molecular target: T2, huCDCP1-his (human, UniProt Q9H5V8 30-667, limits assumed); experiment: SPR (Caterra), antigen immobilized
T2 construct: also called human CDCP1 antigen; not shown: his tag
T2 sequence (looked up): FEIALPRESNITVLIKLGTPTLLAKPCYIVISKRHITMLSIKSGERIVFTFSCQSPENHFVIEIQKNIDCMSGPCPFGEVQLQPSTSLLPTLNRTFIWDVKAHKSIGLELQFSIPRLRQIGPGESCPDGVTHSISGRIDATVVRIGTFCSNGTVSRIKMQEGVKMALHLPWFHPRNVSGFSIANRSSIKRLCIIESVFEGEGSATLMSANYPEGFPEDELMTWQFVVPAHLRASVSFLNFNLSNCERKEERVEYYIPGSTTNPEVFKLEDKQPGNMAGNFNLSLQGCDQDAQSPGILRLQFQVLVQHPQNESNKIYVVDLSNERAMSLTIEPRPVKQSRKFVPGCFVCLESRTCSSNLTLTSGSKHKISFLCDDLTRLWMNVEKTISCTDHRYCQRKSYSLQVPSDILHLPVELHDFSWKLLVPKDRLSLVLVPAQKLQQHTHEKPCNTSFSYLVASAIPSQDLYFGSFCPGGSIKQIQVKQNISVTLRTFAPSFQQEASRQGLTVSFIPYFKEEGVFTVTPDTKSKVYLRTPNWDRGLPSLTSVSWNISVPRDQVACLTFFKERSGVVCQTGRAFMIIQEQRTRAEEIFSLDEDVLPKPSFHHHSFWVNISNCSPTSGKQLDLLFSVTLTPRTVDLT
Experimental: (§1) The candidate antibodies obtained from Example 6 were subjected to gene cloning, constructed into an expression vector for a small amount of expression in CHO cells, and purified with an Fc affinity column (AT Protein A Diamond Plus. No. AA402312). Antibody purity was analyzed by HPLC and determined by Nanodrop. High-throughput affinity assay was carried out for a small amount of antibodies by Caterra. […] At the same time, 2 μg/ml antigen human CDCP1-C and 2 μg/ml human CDCP1-B were used for coating, and the antigen-antibody binding capacity was tested by ELISA for verification.

HuCDCP1-C = molecular target: T3, HuCDCP1-C (human, UniProt Q9H5V8 30-667); experiment: ELISA, coated antigen
T3 construct: range 30-667; expressed in HEK-293T, purified by Fc/his tag; also called human CDCP1-C; full-length extracellular domain of human CDCP1; not shown: Fc or his tag
T3 sequence (looked up): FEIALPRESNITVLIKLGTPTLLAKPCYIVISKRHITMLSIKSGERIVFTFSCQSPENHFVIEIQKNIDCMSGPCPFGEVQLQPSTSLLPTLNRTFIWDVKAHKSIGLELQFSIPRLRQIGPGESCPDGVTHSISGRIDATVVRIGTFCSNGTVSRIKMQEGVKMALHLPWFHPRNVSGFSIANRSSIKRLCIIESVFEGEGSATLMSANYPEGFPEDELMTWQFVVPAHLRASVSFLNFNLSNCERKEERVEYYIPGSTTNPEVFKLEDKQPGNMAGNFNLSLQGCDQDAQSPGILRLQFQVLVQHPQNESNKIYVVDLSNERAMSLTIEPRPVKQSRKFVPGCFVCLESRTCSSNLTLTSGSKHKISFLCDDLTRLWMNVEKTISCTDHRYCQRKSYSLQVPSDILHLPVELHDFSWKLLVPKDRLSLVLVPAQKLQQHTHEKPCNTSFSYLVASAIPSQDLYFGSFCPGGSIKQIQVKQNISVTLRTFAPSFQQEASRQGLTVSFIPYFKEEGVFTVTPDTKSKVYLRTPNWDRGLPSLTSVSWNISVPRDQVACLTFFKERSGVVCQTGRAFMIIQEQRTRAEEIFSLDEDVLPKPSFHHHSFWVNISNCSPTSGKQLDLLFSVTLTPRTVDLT
Experimental: as §1

B1: 6A7-MMAE (antibody, V domains shown)
VH: EVQLKESGAELVRPGASVKVSCKASGYSFTSYWMNWVKQRPGQGLEWIGMIHPSDSETKLNQKFRDRASLTVDKSSSTAYMQLSSPTSEDSAVYYCTINYESFYYAMDYWGQGTTVTVSS
VL: DIVMTQSPASLAVSLGQRATISCRASKSVSTSGYSYMHWYQQKPGQPPKLLLYLASNLESGVPARFSGSGSGADFTLNIHPVEEEDAATYYCLHSRELPYTFGGGTKLEIK
modifications: vc-MMAE coupled after reduction, sites not stated; DAR 3.6
IC50 (nM), killing of HCT116 cells (120 h), CellTiter-Glo [1]: 5.84 nM
IC50 (nM), killing of MDA-MB-231 cells (120 h), CellTiter-Glo [1]: > 40 nM
IC50 (nM), killing of PC3 cells (96 h), CellTiter-Glo [1]: 0.0527 nM

B2: 1CP-063 (antibody, V domains shown)
VH: EVNLKESGPELVKPGASVRISCKASGYTFTSYYIHWVKQRPGQGLEWIGWIYPGNVNSKYNEKFKGKVTLTADKSSITAYMQLSSLTSEDSAVYFCAREDYGHYYAMDYWGQGTTVTVSS
VL: DIVMTQSPSSMYASLGERVTITCKASQDIKSYLSWYQQKPWKSPKTLIYYATSLADGVPSRFSGSGSGQDYSLTISSLESDDTATYYCLQYGESPWTFGGGTKLEIK
notes: murine hybridoma mAb
binding result [2]: binds

B3: SB1 (antibody, V domains shown)
VH: QVQLQQSGPDLVRPGESVKISCKGSGYTFTDHAIHWVRQSHAKSLEWIGVISFSYDNTKYNQNFKGKATMTVDKSSNTAYMELARLTSEDSAIYYCARDCYGSNRGYFDYWGQGTTLTVSS
VL: DIRMTQSPSSMYASLGERVTITCKASQDINRFLSWFLQRPGKAPKTLIYRANNLVEGVPSRFSGSGSGQDYSLIISNLEYEDMGIYYCLQYDEFPRTFGGGTKLEIK
notes: single B cell antibody, expressed in CHO
Kd (huCDCP1-his): 1.61 nM
EC50 (HuCDCP1-C): 0.092 nM

B4: 1CP-065 (antibody, V domains shown)
VH: EVTLKESGAELVRPGALVKLSCKASGFNIKDYYMHWVKQRPEQGLEWIGWIDPENDNTIYDPKFQGKASITADTSSNTAYLQLSSLTSEDTAVYYCARFYGSYYYAMDYWGQGTTVTVSS
VL: DIVMTQSPKFMSTSVGDRVSITCKASQDVSTAVTWYQQKPGQSPKLLIYWASTRHTGVPDRFTGSGSGTDYTLTISSVQAEDLALYYCQQHYSTPYTFGGGTKLEIK
notes: murine hybridoma mAb
binding result [2]: binds

B5: SB6 (antibody, V domains shown)
VH: QGQMQQSGAELVKPGASVKLSCKTSGFTFNSSYITWLKQKPGQSLEWIAWIFAGTGGTYYNEKFTDKAQLTVDTTSSTAYMQFSSLTTEDSAIYYCARHGLGYDYWGQGTTLTVSS
VL: SIVMTQTPKFLLVSAGDRVTITCKASQSVNTDVAWYQQKSGQSPKLLIYSASNRYTGVPDRFTGSGYGTDFTFTISTVQAEDLAVYFCQQDHSSPPWTFGGGTKLEIK
notes: as for B3
Kd (huCDCP1-his): 0.722 nM
EC50 (HuCDCP1-C): 0.027 nM

B6: G10F6-MMAE (antibody, V domains shown)
VH: EVKLVESGPGILQPSQTLSLTCSFSGFSLSTSGMGVSWVRQPSGKGLEWLAHIYWDDDKRYNPSLKGRLTISKDTPRNQVFLEITSVDTTDTATYYCARVPGNWDEDAMDYWGQGTTVTVSS
VL: DIQMTQSPLSLPVSLGDQASISCRSSQNIVHTNGNTYLEWYLQKVGQSPKLLIYKVSNRFSGVPDRFSGSGSGTDFTLKISRVEAEDLGVYYCFQGSHVPYTFGGGTKLEIK
modifications: vc-MMAE coupled after reduction, sites not stated; DAR 3.6
IC50 (nM), killing of HCT116 cells (120 h), CellTiter-Glo [1]: 1.29 nM
IC50 (nM), killing of MDA-MB-231 cells (120 h), CellTiter-Glo [1]: > 40 nM
IC50 (nM), killing of PC3 cells (96 h), CellTiter-Glo [1]: 0.0106 nM

B7: SB2 (antibody, V domains shown)
VH: DVKLVESGGGLVKPGGSLKLSCAASGFTFSSYTMSWVRQTPEKRLEWVATISSGGIYTYYPDSVKGRFTISRDNAKDTLYLQMNSLRSEDTAVYYCSSPHSYAISYGYFDYWGQGTTLTVSS
VL: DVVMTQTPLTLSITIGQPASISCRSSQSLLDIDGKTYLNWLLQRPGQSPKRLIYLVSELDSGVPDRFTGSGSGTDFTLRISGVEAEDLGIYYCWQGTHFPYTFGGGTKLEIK
notes: as for B3
Kd (huCDCP1-his): 1.44 nM
EC50 (HuCDCP1-C): 0.045 nM
